Residue numbers refer to the chain shown, from its start.
B1: 3A-1 (VHH)
VHH: EVKLVESGGDLVKPGGSLKLSCAASGFTFSSYGMSWIRQTPDKRLEWVATISSGGSYTYYPDSVKGRFTISRDNAKNTLYLQMSSLKSEDTAMYYCARRGRYDDTMDYWGQGTTVTVSS
B2: 3A-9 (VHH)
VHH: B1 VHH with S84G, T114S, V115L
B3: 3A-31 (VHH)
VHH: B1 VHH with I37V, N77S, R101K, V115L
B4: 3A-6 (VHH)
VHH: B1 VHH with A23V
B5: 3A-20 (VHH)
VHH: B1 VHH with K3Q, V5E
B6: 3A-3 (VHH)
VHH: B1 VHH with K76E, T114S, V115L
B7: 3A-2 (VHH)
VHH: B1 VHH with V115L

Legend:
[1] = target: IgG1 heavy chain of HG1 mice (γ1 CH1 exon deleted) (mouse (endogenous in serum of HG1 mice)); assay: SDS-PAGE under non-reducing conditions with Western blotting; serum of HG1 and WT mice; detected with HRP-conjugated goat anti-mouse IgG1 heavy chain; association judged from molecular weights (covalent association)
[2] = target: ovalbumin (Gallus gallus (chicken), , UniProt P01012)
Sequence of ovalbumin (P01012 whole entry): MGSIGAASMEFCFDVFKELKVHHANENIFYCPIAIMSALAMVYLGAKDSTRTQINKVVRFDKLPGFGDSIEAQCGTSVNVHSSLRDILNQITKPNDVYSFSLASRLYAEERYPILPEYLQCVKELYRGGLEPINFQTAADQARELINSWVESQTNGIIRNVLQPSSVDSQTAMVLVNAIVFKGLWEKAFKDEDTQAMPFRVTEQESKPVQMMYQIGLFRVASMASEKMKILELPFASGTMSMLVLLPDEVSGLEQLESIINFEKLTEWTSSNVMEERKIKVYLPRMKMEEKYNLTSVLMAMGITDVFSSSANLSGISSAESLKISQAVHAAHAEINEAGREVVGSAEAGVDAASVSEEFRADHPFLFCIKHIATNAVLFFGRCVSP

Molecule | stoichiometry N [1] | binding result [2]
IgG1 heavy chain of HG1 mice (γ1 CH1 exon deleted) | 2 | 
B1 |  | binds
B2 |  | binds
B3 |  | binds
B4 |  | binds
B5 |  | binds
B6 |  | binds
B7 |  | binds

From publication PMC6167435, “Genetic Removal of the CH1 Exon Enables the Production of Heavy Chain-Only IgG in Mice” (Frontiers in Immunology, 2018)
